This note sets out measurements from PMC3916413.

This assay addresses T1, endogenous Asc of mouse macrophages (mouse (endogenous in BMDM)), Q9EPB4.
T1 chain: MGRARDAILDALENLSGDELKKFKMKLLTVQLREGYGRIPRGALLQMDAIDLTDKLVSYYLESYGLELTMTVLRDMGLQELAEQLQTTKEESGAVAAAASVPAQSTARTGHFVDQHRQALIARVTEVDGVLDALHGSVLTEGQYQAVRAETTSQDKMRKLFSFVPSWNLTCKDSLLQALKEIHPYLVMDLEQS
The assay is described as follows: cross-linking; insoluble fraction (pellet) of BMDM lysates cross-linked with 2 mM disuccinimidyl suberate for 30 min, immunoblot with anti-Asc; cells infected with WT Shigella or Salmonella, T3SS-deficient or fliA mutants, nucleofected with MxiI, or with siRNA to Naip2 or Naip5. As to conditions: remark: other sources report otherwise.

B1: endogenous Asc of mouse macrophages, Q9EPB4 1-193 (natural protein)
chain: MGRARDAILDALENLSGDELKKFKMKLLTVQLREGYGRIPRGALLQMDAIDLTDKLVSYYLESYGLELTMTVLRDMGLQELAEQLQTTKEESGAVAAAASVPAQSTARTGHFVDQHRQALIARVTEVDGVLDALHGSVLTEGQYQAVRAETTSQDKMRKLFSFVPSWNLTCKDSLLQALKEIHPYLVMDLEQS
For B1, the stoichiometry N (in general, a count of units in the complex or per binding partner) turned out to be 2.
